Experimental data taken from publication PMC4826628.

Molecular target: Dlx5[Q178P] homeodomain (Homo sapiens, UniProt P56178 137-198, Q178P)
Assay: CD thermal denaturation

Chain of Dlx5[Q178P] homeodomain (P56178 137-198 Q178P): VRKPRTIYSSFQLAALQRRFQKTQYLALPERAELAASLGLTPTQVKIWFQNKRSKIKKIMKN

B1: 14-bp palindromic TAAT duplex (dsDNA)
DNA 1: CGACTAATTAGTCG
DNA 2: CGACTAATTAGTCG
binding result: binds
